Consider 15 compounds from US20150258217A1, “Methods of Synthesizing and Using Peg-Like Fluorochromes” (THE GENERAL HOSPITAL CORPORATION, priority 2012, published 2015).

Series [1] can be described thus: PN and peptide size (volume, diameter) by FPLC gel filtration (Superdex 200, globular protein standards). Format: physicochemical. Particulars: for Molecular Volume: Table 3C, proposed Example 4 compounds; for diameter: FPLC gel filtration; for Volume FPLC / Volume FPLC (diameter): Table 5; for Volume FPLC: globular protein equivalent molecular weight; for Molecular Volume FPLC: Table 3B, dipeptides; for Volume FPLC (diameter): converted from globular protein equivalent MW. On the procedure:
DOTA-Lys-Cys(IR783)-NH2 is then dissolved in DMSO, with 2 equivalents of an NHS ester of PEG and 6 equivalents of DIPEA. The reaction was at room temperature for 5 days. Product was purified by reverse phase HPLC separation. Product molecular weight was by matrix-assisted laser desorption ionization time-of-flight mass spectrometry (MALDI-TOF MS), with product molecular volume by size exclusion FPLC using globular protein standards (GE Healthcare life science AKTApurifier 10).
The mass spec of low molecular weights (MW) were obtained by MS-ESI Micromass (Waters) and high MW molecules were determined through MALDI-TOF analyses at the Tufts University Core Facility. RP-HPLC (Varian ProStar detector and delivery modules) employed an eluant A (0.1% TFA/water) and eluant B (0.1% TFA and 9.9% water in acetonitrile). Probe size (volume) was determined by FPLC using an ÄKTA Purifier 10 and Superdex™ 200 10/300GL column (GE Healthcare) with a running buffer of 0.05 M sodium phosphate, 0.15 M NaCl (0.1% Tween, pH 7.2) and flow rate of 0.8 ml/min. Standards (GE Healthcare) were Ferritin, Ribonuclease A, Carbonic Anhydrase, and Conalbumin and Blue Dextran 2000. To obtain probe volumes, Mr (apparent molecular weight based on size exclusion retention) was plotted versus Kav. Kav=(Ve−Vo)/(Vt−Vo), Vt=total volume, Ve=elution volume, Vo=void volume.
The column was calibrated with globular protein standards, and globular protein equivalent molecular weights (in kDa) were obtained (Table 5, column 5). These were converted to PN diameters in nm using the relationship: Radius in nm=[…] where M is the molecular weight of a globular protein expressed in daltons (see Erickson, “Size and Shape of Protein Molecules at the Nanometer Level Determined by Sedimentation, Gel Filtration, and Electron Microscopy”, Biological Procedures Online 2009, 11(1): 32-50). PN's diameters ranged from 3.0 to 11.8 nm (see FIG. 23a). Using PEG's of 5 kDa and 30 kDa, selected for their low polydispersity, PN's were synthesized using IR-783, Cy3 and Fluorescein (see FIG. 22a) and their sizes determined (see FIGS. 23a, 23b, 23c). With the 5 kDa PEG and these three fluorochromes (see the magenta chromatograms in FIGS. 22a, 23b and 23c) PN diameters were 4.3 nm. With the 30 kDa PEG and these three fluorochromes (blue chromatograms, 23a, 23b, 23c), PN diameters were now 10.0 nm. For reference, the diameter of a 67 kDa albumin determined by this method was 5.4 nm.
(SEC sorts molecules by how far they enter the pores of the column.)

A short description of series [2]: Quantum yield determination. The format is physicochemical. As to conditions: for Quant. Yield: Table 5, in PBS. On the procedure:
Quantum yields were determined as described in Demas et al., “Measurement of photoluminescence quantum yields. Review”, Journal of Physical Chemistry 75, 991-1024 (1971), and Shao et al., “Facile Synthesis of Monofunctional Pentamethine Carbocyanine Fluorophores. Dyes and pigments: an international journal 90, 119-122 (2011). For IR-783 a reference quantum yield of 0.043 was used (see Li et al., “Synthesis and characterization of glucosamine-bound near-infrared probes for optical imaging”, Organic letters 8, 3623-3626, 2006); for fluorescein a reference quantum yield was […] (see Sjoback et al., “Absorption and florescence properties of fluorescein”, Spectrohimica Acta Part A 51, L7-L21, 1995). For Cy3 a reference quantum yield of 0.31 was used (Luminprobe Inc). For PN(783)'s, excitation was at 730 nm and emission spectra were recorded from 765 nm to 870 nm in PBS and maximum emission used. For PN(545)'s, excitation was at 515 nm and emission spectra were recorded from 538 nm to 700 nm in PBS and maximum emission used. For PN(497)'s, excitation was at 450 nm and emission spectra were recorded from 475 nm to 620 nm in PBS and maximum emission used. Absorbance of each probe was adjusted less than 0.1. Measurements were made in triplicate and are expressed as mean±SD.

Series [3] has as its system HT-29, a human colon carcinoma cell line. As to the kind of experiment: PN and peptide binding to cells (non-specific binding, FACS). The format is cell-based. As to conditions: HT-29 cells; for Cell NSB (percent of cells with fluorescence higher than unstained cell): 30 min at 37° C., FACS. The method, then: HT-29, a human colon carcinoma cell line, was from the American Tissue Culture Collection and maintained according to their instructions. Cells were seeded on 24-well plates at 5×10^5 cells/well in culture medium (RPMI 1640 with 10% FBS) the day before the assay. The day of assay, medium was removed, wells rinsed twice with DPBS (+Ca, +Mg), and 100 μl of 2% FBS/DPBS (+Ca, +Mg) added. 100 μL of Nanoprobes (2 μM) in DPBS (+Ca, +Mg) was added to cells and incubated for 30 min at 37° C. (Probe concentrations were determined spectrophotometrically (783 nm, extinction coefficient of 314 471 cm^−1 M^−1 for IR-783; 497 nm, extinction coefficient of 68 000 cm^−1 M^−1 for Fluorescein; 545 nm, extinction coefficient of 150 000 cm^−1 M^−1 for Cy3). Cells were detached by Trypsin/EDTA and assayed for fluorescence by FACS (BD 7 laser LSR2 for nanoprobes with IR-783; BD 3 laser LSR2 for nanoprobes with Fluorescein or Cy3).

Series [4] in a line: Probe volume determination by FPLC (Superdex 75, globular protein standards). As to conditions: Table 3A, tetrapeptides. Format: physicochemical. The method, then:
Size (volume) was determined by FPLC using an ÄKTA Purifier 10 and Superdex™ 75 10/300 GL column (GE Healthcare Lifesciences) with a running buffer of 0.05 M sodium phosphate, 0.15 M NaCl (0.1% Tween, pH 7.2) and flow rate of 0.5 ml/min. The protein standards (Gel Filtration Calibration Kit LMW, code no. 28-4038-41, GE Healthcare) (0.3 mg/ml, mixture of Aprotinin, Ribonuclease A, Ovalbumin, and Conalbumin) and Blue Dextran 2000 were used. To obtain volumes, Mr (apparent molecular weight based on size exclusion retention) was plotted versus Kav. Kav=(Ve−Vo)/[…], Vt=total volume, Ve=elution volume, Vo=void volume.

The mark [5] stands for this setting: Table 3A, CyAL5.5 tetrapeptides.
Setting [6] is: Table 3C, proposed Example 4 compounds.

Turning to 5 kDa PEG-Cys(IR-783)-OH, the “Molecular Volume” value in series [1] is above 20 kDa.

Consider `CC1(C)C(/C=C/C=C/C=C/C=C2/N(CCCCS(=O)(=O)O)c3ccc4ccccc4c3C2(C)C)=[N+](CCCCS(=O)(=O)O)c2ccc3ccccc3c21` [ICG, Indocyanine green, reference compound], for which the “Quantum Yield” value in series [2] (Table 3B, IR-783 dipeptides) came out at 0.041.

In the case of (DOTA)Lys(PEG5K)-Cys(Cy3) [PN(545)4.3], in series [2], the “Quant. Yield” value worked out at 0.59. In series [1], the diameter is on record as 4.3 nm and the “Volume FPLC” value came out at 35 kDa. Besides, the “Cell NSB (percent of cells with fluorescence higher than unstained cell)” value in series [3] is recorded as 31%.

On to (DOTA)Lys(PEG5K)-Cys(FI) [PN(497)4.3], for which, in series [2], the “Quant. Yield” value turned out to be 0.59. Besides, in series [1], the diameter is 4.3 nm and the “Volume FPLC” value was 35 kDa. The “Cell NSB (percent of cells with fluorescence higher than unstained cell)” value in series [3] was 0.2%.

For (DOTA)Lys(PEG30K)-Cys(FI) [PN(497)10.0], the “Quant. Yield” value in series [2] is given as 0.60. The “Volume FPLC” value in series [1] turned out to be 435 kDa. Further, the “Cell NSB (percent of cells with fluorescence higher than unstained cell)” value in series [3] is recorded as 0.1%.

In the case of “(DOTA)Lys(PEG40K)-Cys(IR-783) [PN(783)11.7]”, the “Quantum Yield” value in series [2] (Table 3B, IR-783 dipeptides) was found to be 0.18. Further, the “Quant. Yield” value in series [2] was 0.16. Moreover, in series [1], the “Molecular Volume FPLC” value is listed as 690 kDa, the “Volume FPLC (diameter)” value came out at 11.7 nm and the “Volume FPLC” value is 690 kDa.

Turning to (DOTA)Lys-Cys(Cy3), the “Quant. Yield” value in series [2] came to 0.32. In addition, the “Volume FPLC” value in series [1] is reported as 0.6 kDa. For the same compound, in series [3], the “binding to cells (FACS, FIG. 30)” value was “binds to cells” and the “Cell NSB (percent of cells with fluorescence higher than unstained cell)” value was found to be 98%.

“(DOTA)Lys-Cys(Fluorescein) [(DOTA)Lys-Cys(FI)]”: in series [2], the “Quant. Yield” value came to 0.50. Further, in series [3], the “binding to cells (FACS, FIG. 30)” value is given as “binds cells very weakly” and the “Cell NSB (percent of cells with fluorescence higher than unstained cell)” value is reported as 0.4%.

As for (DOTA)Lys-Cys(IR-783), the “Quantum Yield” value in series [2] (Table 3B, IR-783 dipeptides) is reported as 0.053. Moreover, in series [2], the “Quant. Yield” value is on record as 0.053. Moreover, in series [1], the diameter was found to be 1.1 nm, the “Molecular Volume FPLC” value is 0.600 kDa, the “Volume FPLC (diameter)” value came to 1.10 nm and the “Volume FPLC” value is 0.600 kDa. In series [3], the “binding to cells (FACS, FIG. 30)” value was “binds cells” and the “Cell NSB (percent of cells with fluorescence higher than unstained cell)” value was determined as 95%.

For “DOTA-Lys(CyAL5.5)-Lys(5 kDa PEG)- βAla -Lys(N3)-NH2 [Compound 5b]”, in series [2] (setting [5]), the “Quantum Yield” value turned out to be 0.17. In addition, the “Molecular Volume” value in series [4] is below 1 kDa.

For the compound “DOTA-Lys(CyAL5.5)-Lys(NH2)-β-Ala-Lys(N3) [Compound 5a]”, the “Quantum Yield” value in series [2] (setting [5]) was determined as 0.061. The “Molecular Volume” value in series [4] was below 1 kDa.

Consider “DOTA-Lys(CyAL5.5)-Lys(NH2)-β-Ala-Lys(N3-DBCO-PEG4-cRGD)-NH2 [Compound 6a]”, for which, in series [2] (setting [5]), the “Quantum Yield” value is 0.082. Besides, the “Molecular Volume” value in series [4] is recorded as below 1 kDa.

With “DOTA-Lys(CyAL5.5)-Lys- βala -Lys(sPEG-RAD) [Compound 6b]”, the “Quantum Yield” value in series [2] (setting [5]) is given as 0.081. Also, the “Molecular Volume” value in series [4] is below 1 kDa.

As for DOTA-Lys(PEG 40 kDa)-Cys(Fl)-NH2, the “Quantum Yield” value in series [2] (setting [6]) came to 0.60. In series [1], the “Molecular Volume” value is on record as 690 kDa.

On to NH2-Cys(IR-783)-OH, for which, in series [2] (setting [6]), the “Quantum Yield” value was below 0.10. For the same compound, in series [1], the “Molecular Volume” value was below 2 kDa.
